Where a chain is given by its changes, count along the chain named.
B1: hAb001H2L1b (antibody, human IgG1, V domains shown)
VH: EVQLVESGGGLVQPGGSLRLSCAASGFSFNTNAMNWVRQAPGKGLEWVGRIRSKSNNYATYYADSVKDRFTISRDDSKSSLYLQMNSLKTEDTAVYYCVRDGYYVLFAYWGQGTLVTVSS
VL: DIVMTQTPLSLPVTPGEPASISCRFSQSIVNSNANTYLEWFLQKPGQSPQLLIYKVSNRFSGVPDRFSGSGSGTDFTLKISRVEAEDVGVYYCFQGSHVPFTFGQGTKLEIK
notes: Humanized F2.169.2, H2+L1b
B2: hAb001H2L1a (antibody, human IgG1, V domains shown)
VH: B1 VH
VL: B1 VL with N33D, A34G
notes: Humanized F2.169.2, H2+L1a
B3: hAb006LH3L1c (antibody, human IgG1, V domains shown)
VH: EVQLVQSGAEVKKPGSSVKVSCKASGYTFTDYEIHWVRQAPGQGLEWMGAIDPKTGNTAYNQKFMGRVTLTADKSTSTAYMELSSLRSEDTAVYYCTRYFSFAYWGQGTLVTVSS
VL: B1 VL with F25S, S28T, I29F, N31H, A34R, E39Q, F41Y, F101Y
notes: Humanized F3.38.7, H3+L1c
B4: hAb007LH1L1c (antibody, human IgG1, V domains shown)
VH: B3 VH with T30S, I34M, A50T, K54E, M65K, L70I, Y99P, F100Y, F102L, A103T
VL: B1 VL with F25S, I29F, N31H, N35D, E39Q, F41Y, F101Y
notes: Humanized F3.81.19, H1+L1c
B5: hAb006LH3L1e (antibody, human IgG1, V domains shown)
VH: B3 VH
VL: B1 VL with F25S, S28T, I29F, N31H, A34V, E39Q, F41Y, F101Y
notes: Humanized F3.38.7, H3+L1e
B6: hAb006LH3L1d (antibody, human IgG1, V domains shown)
VH: B3 VH
VL: B1 VL with F25S, S28T, I29F, N31H, A34S, E39Q, F41Y, F101Y
notes: Humanized F3.38.7, H3+L1d
B7: hAb007LH1L1e (antibody, human IgG1, V domains shown)
VH: B3 VH with T30S, I34M, A50T, K54E, M65K, L70I, Y99P, F100Y, F102L, A103T
VL: B1 VL with F25S, I29F, N31H, A34V, N35D, E39Q, F41Y, F101Y
notes: Humanized F3.81.19, H1+L1e
B8: hAb007LH1L1d (antibody, human IgG1, V domains shown)
VH: B3 VH with T30S, I34M, A50T, K54E, M65K, L70I, Y99P, F100Y, F102L, A103T
VL: B1 VL with F25S, I29F, N31H, A34S, N35D, E39Q, F41Y, F101Y
notes: Humanized F3.81.19, H1+L1d

molecular target: T1, monkey GPC3-His protein (monkey); experiment: ELISA, monkey GPC3-His coated; antibody 0.02 nM
T1 construct: Bought protein; also called monkey GPC3 protein
Method: (§1) The specific method is described as follows: The antigen protein was diluted with PBS to a final concentration of 1 μg/mL, and the diluent was added to a 96-well ELISA plate at 50 μL/well. The plate was sealed with a plastic film and incubated at 4° C. overnight, washed twice with PBS the next day, and a blocking solution [PBS+2% (w/w) BSA] was added for blocking at room temperature for 2 h. […] After incubation at 37° C. for 2 h, the plate was washed 3 times with PBS. A horseradish peroxidase (HRP)-labeled secondary antibody (purchased from Merck, Cat. No. AP113P) was added for incubation at 37° C. for 1 h, and the plate was washed 5 times with PBS. A TMB substrate was added at 50 μL/well for incubation at room temperature for 10 min, then a stop solution (1.0M HCl) was added at 50 μL/well.

Row | OD450 nm | Binder
1 | 0.865 | B1
2 | 0.34 | B2

molecular target: T2, GPC3 on HepG2 cells (human, UniProt P51654 25-554); experiment: FACS on HepG2 cells
T2 construct: whole, on cells; also called glypican-3
Method: The desired cells were expanded to a logarithmic growth phase in a T-75 cell culture flask, the medium was removed by pipetting, and the cells were washed twice with a PBS buffer, and digested with trypsin. Then a complete medium was added to stop the digestion, and the cells were blown into a single cell suspension. After counting, the cells were centrifuged, and the cell pellet was resuspended with an FACS buffer (PBS+2% fetal bovine serum) to 2×10⁶ cells/mL. The cell resuspension solution was added to a 96-well FACS reaction plate at 50 μl/well, and a humanized antibody sample to be tested was added at 50 μl/well for incubation at 4° C. for 1 h. […] After the plate was centrifuged and washed 3 times with a PBS buffer, 100 μl of the resulting solution was assayed and analyzed by FACS (FACS Canto™, purchased from BD Biosciences). Data analysis was performed by software (FlowJo) to obtain the mean fluorescence intensity (MFI) of the cells. Then, analysis was performed by software (GraphPad Prism8), data were fitted, and EC₅₀ values were calculated.

Row | EC50 | Max MFI | Binder
3 | 0.417 nM | 3520 | B3
4 | 3.67 nM | 3770 | B4
5 | 1.01 nM | 2780 | B5
6 | 0.772 nM | 3500 | B6
7 | 10.1 nM | 2910 | B7
8 | 4.39 nM | 3830 | B8

molecular target: T1, monkey GPC3-His protein; experiment: ELISA, monkey GPC3-His coated; antibody 0.056 nM
Method: as §1

Row | OD450 nm | Binder
9 | 0.876 | B3
10 | 0.268 | B4
11 | 0.67 | B5
12 | 0.719 | B6
13 | 0.148 | B7
14 | 0.235 | B8

molecular target: T1, monkey GPC3-His protein; experiment: ELISA, monkey GPC3-His coated; antibody 0.28 nM
Method: as §1

Row | OD450 nm | Binder
15 | 1.24 | B3
16 | 0.744 | B4
17 | 1.14 | B5
18 | 1.1 | B6
19 | 0.399 | B7
20 | 0.752 | B8

molecular target: T1, monkey GPC3-His protein; experiment: ELISA, monkey GPC3-His coated; antibody 0.0008 nM
Method: as §1

Row | OD450 nm | Binder
21 | 0.143 | B1
22 | 0.063 | B2

molecular target: T3, murine GPC3-his protein (murine, UniProt Q8CFZ4 25-558, limits assumed); experiment: ELISA, murine GPC3-his coated; antibody 0.004 nM
T3 construct: Bought protein; also called mouse GPC3 protein; murine GPC3 protein; not shown: His tag
T3 sequence (Q8CFZ4 25-558 limits assumed): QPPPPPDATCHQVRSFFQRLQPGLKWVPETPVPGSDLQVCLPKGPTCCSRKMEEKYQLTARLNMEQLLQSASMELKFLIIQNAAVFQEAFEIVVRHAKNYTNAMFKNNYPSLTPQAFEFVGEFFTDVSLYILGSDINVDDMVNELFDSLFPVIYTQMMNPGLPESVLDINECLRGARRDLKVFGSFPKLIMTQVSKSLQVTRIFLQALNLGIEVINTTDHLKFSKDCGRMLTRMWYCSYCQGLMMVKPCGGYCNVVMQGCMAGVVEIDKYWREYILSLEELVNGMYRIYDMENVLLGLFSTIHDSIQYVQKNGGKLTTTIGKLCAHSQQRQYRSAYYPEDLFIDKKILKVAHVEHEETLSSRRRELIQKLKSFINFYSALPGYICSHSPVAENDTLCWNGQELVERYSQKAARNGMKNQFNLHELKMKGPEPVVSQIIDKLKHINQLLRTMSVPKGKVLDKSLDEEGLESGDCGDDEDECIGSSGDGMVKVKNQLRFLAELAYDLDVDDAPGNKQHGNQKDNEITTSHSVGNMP

Row | OD450 nm | Binder
23 | 0.407 | B1
24 | 0.191 | B2

molecular target: T1, monkey GPC3-His protein; experiment: ELISA, monkey GPC3-His coated; antibody 0.002 nM
Method: as §1

Row | OD450 nm | Binder
25 | 0.122 | B3
26 | 0.069 | B4
27 | 0.114 | B5
28 | 0.121 | B6
29 | 0.148 | B7
30 | 0.078 | B8

molecular target: T3, murine GPC3-his protein; experiment: ELISA, murine GPC3-his coated; antibody 0.53 nM
Method: as §1

Row | OD450 nm | Binder
31 | 2.38 | B1
32 | 2.19 | B2

molecular target: T3, murine GPC3-his protein; experiment: ELISA, murine GPC3-his coated; antibody 2.67 nM
Method: as §1

Row | OD450 nm | Binder
33 | 2.44 | B1
34 | 2.35 | B2

molecular target: T3, murine GPC3-his protein; experiment: ELISA, murine GPC3-his coated; antibody 66.66 nM
Method: as §1

Row | OD450 nm | Binder
35 | 2.64 | B1
36 | 2.48 | B2

molecular target: T1, monkey GPC3-His protein; experiment: ELISA, monkey GPC3-His coated; antibody 0.011 nM
Method: as §1

Row | OD450 nm | Binder
37 | 0.332 | B3
38 | 0.103 | B4
39 | 0.24 | B5
40 | 0.308 | B6
41 | 0.14 | B7
42 | 0.09 | B8

molecular target: T3, murine GPC3-his protein; experiment: ELISA, murine GPC3-his coated; antibody 13.33 nM
Method: as §1

Row | OD450 nm | Binder
43 | 2.58 | B1
44 | 2.41 | B2

molecular target: T1, monkey GPC3-His protein; experiment: ELISA, monkey GPC3-His coated; antibody 0.004 nM
Method: as §1

Row | OD450 nm | Binder
45 | 0.317 | B1
46 | 0.094 | B2

molecular target: T1, monkey GPC3-His protein; experiment: ELISA, monkey GPC3-His coated; antibody 66.66 nM
Method: as §1

Row | OD450 nm | Binder
47 | 2.58 | B1
48 | 2.22 | B2

molecular target: T1, monkey GPC3-His protein; experiment: ELISA, monkey GPC3-His coated; antibody 13.33 nM
Method: as §1

Row | OD450 nm | Binder
49 | 2.47 | B1
50 | 2.34 | B2

molecular target: T3, murine GPC3-his protein; experiment: ELISA, murine GPC3-his coated; antibody 0.11 nM
Method: as §1

Row | OD450 nm | Binder
51 | 2.06 | B1
52 | 1.59 | B2

molecular target: T1, monkey GPC3-His protein; experiment: ELISA, monkey GPC3-His coated; antibody 6.94 nM
Method: as §1

Row | OD450 nm | Binder
53 | 1.33 | B3
54 | 1.26 | B4
55 | 1.22 | B5
56 | 1.29 | B6
57 | 1.17 | B7
58 | 1.3 | B8

molecular target: T3, murine GPC3-his protein; experiment: ELISA, murine GPC3-his coated; antibody 0.0008 nM
Method: as §1

Row | OD450 nm | Binder
59 | 0.199 | B1
60 | 0.094 | B2

molecular target: T1, monkey GPC3-His protein; experiment: ELISA, monkey GPC3-His coated; antibody 0.0004 nM
Method: as §1

Row | OD450 nm | Binder
61 | 0.071 | B3
62 | 0.05 | B4
63 | 0.066 | B5
64 | 0.068 | B6
65 | 0.043 | B7
66 | 0.053 | B8

molecular target: T1, monkey GPC3-His protein; experiment: ELISA, monkey GPC3-His coated; antibody 2.67 nM
Method: as §1

Row | OD450 nm | Binder
67 | 2.45 | B1
68 | 2.25 | B2

molecular target: T1, monkey GPC3-His protein; experiment: ELISA, monkey GPC3-His coated; antibody 34.72 nM
Method: as §1

Row | OD450 nm | Binder
69 | 1.26 | B3
70 | 1.25 | B4
71 | 1.26 | B5
72 | 1.3 | B6
73 | 1.14 | B7
74 | 1.25 | B8

molecular target: T1, monkey GPC3-His protein; experiment: ELISA, monkey GPC3-His coated; antibody 0.11 nM
Method: as §1

Row | OD450 nm | Binder
75 | 1.93 | B1
76 | 1.13 | B2

molecular target: T1, monkey GPC3-His protein; experiment: ELISA, monkey GPC3-His coated; antibody 1.39 nM
Method: as §1

Row | OD450 nm | Binder
77 | 1.32 | B3
78 | 1.3 | B4
79 | 1.07 | B5
80 | 1.28 | B6
81 | 0.848 | B7
82 | 1.2 | B8

molecular target: T1, monkey GPC3-His protein; experiment: ELISA, monkey GPC3-His coated; antibody 0.53 nM
Method: as §1

Row | OD450 nm | Binder
83 | 2.54 | B1
84 | 2.02 | B2

molecular target: T3, murine GPC3-his protein; experiment: ELISA, murine GPC3-his coated; antibody 0.02 nM
Method: as §1

Row | OD450 nm | Binder
85 | 1.09 | B1
86 | 0.664 | B2
